Data published in patent US20250101129A1, “AFFINITY SUBSTANCE, COMPOUND, AND ANTIBODY AND THEIR SALTS” (Ajinomoto Co., Inc., priority 2022, published 2025).

Tests used:
[1] = biological target: EGFR on A-431 cells (EGFR-positive) (UniProt P00533); assay: flow cytometry on A-431 cells, Alexa Fluor 488 anti-human IgG secondary antibody
[2] = biological target: Recombinant human HER2-Fc (R&D Systems), biotinylated (human) (UniProt P04626); assay: SPR Biacore T200, biotinylated human HER2-Fc on Biotin CAPture chip, antibody as analyte, single cycle kinetics, 1:1 model
[3] = biological target: Recombinant human HER2-Fc (R&D Systems), biotinylated (human) (UniProt P04626); assay: SPR (Biacore T200), single cycle kinetics, ligand biotinylated HER2-Fc on Biotin CAPture chip, HBS-EP+, 1:1 binding model
[4] = biological target: Biotinylated recombinant human FcRn (Immunitrack) (human) (UniProt P55899); assay: SPR Biacore T200, biotinylated human FcRn on chip SA, association at pH 6.0, single cycle kinetics, 1:1 model; dissociated at pH 7.4
[5] = biological target: EGFR on A-431 cells (EGFR-positive) (UniProt P00533); assay: flow cytometry, primary antibody then Alexa Fluor 488 goat anti-human IgG (H+L), A-431 cells; histogram peak a little above 10^5, gate from a little above 10^4
[6] = biological target: HER2 on SKBR-3 cells (HER2-positive) (UniProt P04626); assay: flow cytometry, primary antibody then Alexa Fluor 488 goat anti-human IgG (H+L), SKBR-3 cells; histogram peak between 10^3 and 10^4, gate from a little below 10^3
[7] = biological target: Recombinant human PD-1-Fc (R&D Systems), biotinylated (human) (UniProt Q15116); assay: SPR Biacore T200, biotinylated human PD-1-Fc on Biotin CAPture chip, antibody as analyte, single cycle kinetics, 1:1 model
[8] = biological target: EGFR on A-431 cells (EGFR-positive) (UniProt P00533); assay: flow cytometry on A431 (EGFR+) cells, fraction of cells in the positive gate, x axis EGFR-BL-1H, Alexa Fluor 488 anti-human IgG secondary antibody
[9] = biological target: HER2 on SKBR-3 cells (HER2-positive) (UniProt P04626); assay: flow cytometry on SKBR3 (HER2+) cells, fraction of cells in the positive gate, x axis HER2-BL-1H, Alexa Fluor 488 anti-human IgG secondary antibody
[10] = biological target: PD-1 on CD3-activated human T cells (PD-1-positive) (human) (UniProt Q15116); assay: flow cytometry on CD3-activated human T cells (PD-1+), fraction of cells in the positive gate, x axis PD-1-BL-1H, Alexa Fluor 488 anti-human IgG secondary antibody
[11] = biological target: Recombinant human EGFR-Fc (R&D Systems), biotinylated (human) (UniProt P00533); assay: SPR Biacore T200, biotinylated human EGFR-Fc on Biotin CAPture chip, antibody as analyte, single cycle kinetics, 1:1 model
[12] = biological target: EGFR on A-431 cells (EGFR-positive) (UniProt P00533); assay: flow cytometry, primary antibody then Alexa Fluor 488 goat anti-human IgG (H+L), A-431 cells; histogram peak at about 10^5, gate from a little above 10^4

Chain of Recombinant human PD-1-Fc (R&D Systems), biotinylated (human) (Q15116 25-167 limits assumed): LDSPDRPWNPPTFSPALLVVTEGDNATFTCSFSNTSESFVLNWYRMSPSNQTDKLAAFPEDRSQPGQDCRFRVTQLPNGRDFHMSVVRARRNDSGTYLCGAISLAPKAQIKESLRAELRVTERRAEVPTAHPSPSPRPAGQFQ
Chain of PD-1 on CD3-activated human T cells (PD-1-positive) (human) (Q15116 25-288): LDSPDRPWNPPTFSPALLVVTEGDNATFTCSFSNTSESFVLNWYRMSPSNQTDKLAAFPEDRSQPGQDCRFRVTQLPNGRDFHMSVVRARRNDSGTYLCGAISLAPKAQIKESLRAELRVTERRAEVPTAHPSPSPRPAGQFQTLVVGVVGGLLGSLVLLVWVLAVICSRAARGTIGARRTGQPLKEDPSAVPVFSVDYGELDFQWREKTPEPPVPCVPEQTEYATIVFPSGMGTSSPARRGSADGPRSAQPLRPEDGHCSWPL

Substance | percent of cells with fluorescence [1] [%] | Kd [2] [nM] | Kd [3] [nM] | Kd [4] [nM] | percent of cells in the positive gate [5] [%] | percent of cells in the positive gate [6] [%] | Kd [7] [nM] | Positive cell (%) [8] [%] | Positive cell (%) [9] [%] | Positive cell (%) [10] [%] | Kd [11] [nM] | percent of cells in the positive gate [12] [%]
DAR1 bi-specific antibody (Trastuzumab-Cetuximab Fab) (M-4) (bispecific antibody) | > 98 | < 0.0019 | < 0.0019 | 2.4 | 99.6 | 97.9 |  |  |  |  |  | 
Tri-specific antibody (Pembrolizumab Fab-Cetuximab-Trastuzumab Fab) (M-2) | > 98 |  |  | 2.4 |  |  | 1.1 | 98.9 | 97.2 | 21.4 |  | 
DAR1 bi-specific antibody (Cetuximab-Trastuzumab Fab) (M-3) (bispecific antibody) | > 98 |  |  | 2.6 |  | 97.3 |  |  |  |  | 0.3 | 98.2
